pKd: −log10 of the molar value.

For this series, the target named is T1, Siglec-5 (Sialic acid-binding Ig-like lectin 5) (human (NB4 AML cell line)) (UniProt O15389).
T1 sequence: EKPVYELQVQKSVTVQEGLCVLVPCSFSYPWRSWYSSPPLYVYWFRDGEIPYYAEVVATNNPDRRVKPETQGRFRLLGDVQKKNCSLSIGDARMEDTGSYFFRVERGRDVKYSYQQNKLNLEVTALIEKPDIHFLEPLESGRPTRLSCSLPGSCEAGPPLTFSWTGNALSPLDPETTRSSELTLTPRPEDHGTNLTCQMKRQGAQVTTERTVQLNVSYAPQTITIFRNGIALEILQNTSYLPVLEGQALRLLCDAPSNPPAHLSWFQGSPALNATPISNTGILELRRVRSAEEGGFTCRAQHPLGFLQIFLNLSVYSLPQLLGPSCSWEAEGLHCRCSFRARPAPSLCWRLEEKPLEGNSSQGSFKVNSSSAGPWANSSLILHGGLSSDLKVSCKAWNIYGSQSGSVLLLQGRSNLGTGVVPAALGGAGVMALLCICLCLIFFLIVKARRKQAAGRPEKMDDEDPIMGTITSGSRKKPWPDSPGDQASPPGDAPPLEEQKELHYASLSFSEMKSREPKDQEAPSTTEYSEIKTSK
Put plainly: flow cytometry on NB4 cells. Particulars: PBS with 4.5 g/L glucose, 5 mM MgCl2, 0.1 mg/ml yeast tRNA, 1 mg/ml BSA (0.1% NaN3 for flow cytometry), on ice 30 min; pH not stated; JH6 and JH19 (whole-cell …). In general terms: Flow cytometry measures light scatter and fluorescence of single cells or particles in a stream.

A word on the pKd: it is the Kd on a negative log10 scale, so that one unit is a factor of ten. “GACGCTTACTCAGGTGTGACTCGAAGGGGTTGGGTGGGTTTATACAAATTAATTAATATTGTATGGTATATTTCGAAGGACGCAGATGAAGTCTC [K19]” showed a pKd of 7.91.
